Data: IntAct's records for PubMed 14507921

B1: Anthrax toxin receptor 1 (Homo sapiens), Q9H6X2-2 (parent)
chain: MATAERRALGIGFQWLSLATLVLICAGQGGRREDGGPACYGGFDLYFILDKSGSVLHHWNEIYYFVEQLAHKFISPQLRMSFIVFSTRGTTLMKLTEDREQIRQGLEELQKVLPGGDTYMHEGFERASEQIYYENRQGYRTASVIIALTDGELHEDLFFYSEREANRSRDLGAIVYCVGVKDFNETQLARIADSKDHVFPVNDGFQALQGIIHSILKKSCIEILAAEPSTICAGESFQVVVRGNGFRHARNVDRVLCSFKINDSVTLNEKPFSVEDTYLLCPAPILKEVGMKAALQVSMNDGLSFISSSVIITTTHCSDGSILAIALLILFLLLALALLWWFWPLCCTVIIKEVPPPPAEESEENKIK

Variants of: B1
Settings: with pag_bacan pagA

Variant | effect of a mutation on the interaction
MATAERRALGIGFQWLSLATLVLICAGQGGRREDGGPACYGGFDLYFILAKSGSVLHHWNEIYYFVEQLAHKFISPQLRMSFIVFSTRGTTLMKLTEDREQIRQGLEELQKVLPGGDTYMHEGFERASEQIYYENRQGYRTASVIIALTDGELHEDLFFYSEREANRSRDLGAIVYCVGVKDFNETQLARIADSKDHVFPVNDGFQALQGIIHSILKKSCIEILAAEPSTICAGESFQVVVRGNGFRHARNVDRVLCSFKINDSVTLNEKPFSVEDTYLLCPAPILKEVGMKAALQVSMNDGLSFISSSVIITTTHCSDGSILAIALLILFLLLALALLWWFWPLCCTVIIKEVPPPPAEESEENKIK [D50A] | decreasing interaction
MATAERRALGIGFQWLSLATLVLICAGQGGRREDGGPACYGGFDLYFILDKSGSVLHHWNEIYYFVEQLAHKFISPQLRMSFIVFSTRGTTLMKLTEDREQIRQGLEELQKVLPGGDAYMHEGFERASEQIYYENRQGYRTASVIIALTDGELHEDLFFYSEREANRSRDLGAIVYCVGVKDFNETQLARIADSKDHVFPVNDGFQALQGIIHSILKKSCIEILAAEPSTICAGESFQVVVRGNGFRHARNVDRVLCSFKINDSVTLNEKPFSVEDTYLLCPAPILKEVGMKAALQVSMNDGLSFISSSVIITTTHCSDGSILAIALLILFLLLALALLWWFWPLCCTVIIKEVPPPPAEESEENKIK [T118A] | decreasing interaction
